Source: patent US20230242651A1 (published 2023)
Positions count from the first letter of the chain named.

T1: human interleukin-23 receptor (IL23R) (human, UniProt Q5VWK5 24-355, limits assumed)
T1 construct: also called human IL23R
T1 sequence (looked up): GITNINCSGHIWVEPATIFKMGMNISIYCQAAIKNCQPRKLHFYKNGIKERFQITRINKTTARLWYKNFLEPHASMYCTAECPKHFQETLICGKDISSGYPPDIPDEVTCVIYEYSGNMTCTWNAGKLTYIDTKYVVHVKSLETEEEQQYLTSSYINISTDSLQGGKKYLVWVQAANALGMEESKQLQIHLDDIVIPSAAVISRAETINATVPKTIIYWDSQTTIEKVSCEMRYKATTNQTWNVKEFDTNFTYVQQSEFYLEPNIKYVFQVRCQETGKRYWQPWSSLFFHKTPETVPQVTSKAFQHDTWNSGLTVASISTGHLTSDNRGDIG

B1: Vκ3/VH2 consensus λ-capped, human IL23R specific scFv (scFv)
scFv: DIVLTQSPATLSLSPGERATLSCQASENIYSFLAWYQQKPGQAPRLLIYSASKLAAGVPARFSGSGSGTDFTLTISSLEPEDFAVYYCQQTNRYSNPDIYNVFGGGTKLTVLGGGGGSGGGGSGGGGSGGGGSQVQLKESGPALVKPTQTLTLTCTFSGIDFNSNYYMCWIRQPPGKALEWLACIYVGSHVNTYYANWAKGRLTISKDTSKNQVVLTMTNMDPVDTATYYCATSGSSVLYFKFWGQGTLVTVSS
notes: scFv VL-linker-VH, made in E. coli; also called Vκ3VH2 capped
B2: Vκ2/VH3 consensus λ-capped, human IL23R specific scFv (scFv)
scFv: DIVMTQSPLSLPVTPGEPASISCQASENIYSFLAWYLQKPGQSPQLLIYSASKLAAGVPDRFSGSGSGTDFTLKISRVEAEDVGVYYCQQTNRYSNPDIYNVFGGGTKLTVLGGGGGSGGGGSGGGGSGGGGSEVQLVESGGGLVQPGGSLRLSCAASGIDFNSNYYMCWVRQAPGKGLEWVSCIYVGSHVNTYYANWAKGRFTISRDNSKNTLYLQMNSLRAEDTAVYYCATSGSSVLYFKFWGQGTLVTVSS
notes: scFv VL-linker-VH, made in E. coli; also called Vκ2VH3 capped
B3: Vκ2/VH5 consensus λ-capped, human IL23R specific scFv (scFv)
scFv: DIVMTQSPLSLPVTPGEPASISCQASENIYSFLAWYLQKPGQSPQLLIYSASKLAAGVPDRFSGSGSGTDFTLKISRVEAEDVGVYYCQQTNRYSNPDIYNVFGGGTKLTVLGGGGGSGGGGSGGGGSGGGGSEVQLVQSGAEVKKPGESLKISCKGSGIDFNSNYYMCWVRQMPGKGLEWMGCIYVGSHVNTYYANWAKGQVTISADKSISTAYLQWSSLKASDTAMYYCATSGSSVLYFKFWGQGTLVTVSS
notes: scFv VL-linker-VH, made in E. coli; also called Vκ2VH5 capped
B4: Vκ2/VH4 consensus λ-capped, human IL23R specific scFv (scFv)
scFv: DIVMTQSPLSLPVTPGEPASISCQASENIYSFLAWYLQKPGQSPQLLIYSASKLAAGVPDRFSGSGSGTDFTLKISRVEAEDVGVYYCQQTNRYSNPDIYNVFGGGTKLTVLGGGGGSGGGGSGGGGSGGGGSQVQLQESGPGLVKPSETLSLTCTVSGIDFNSNYYMCWIRQPPGKGLEWIGCIYVGSHVNTYYANWAKGRVTISVDTSKNQFSLKLSSVTAADTAVYYCATSGSSVLYFKFWGQGTLVTVSS
notes: scFv VL-linker-VH, made in E. coli; also called Vκ2VH4 capped
B5: Vκ3/VH1A consensus λ-capped, human IL23R specific scFv (scFv)
scFv: DIVLTQSPATLSLSPGERATLSCQASENIYSFLAWYQQKPGQAPRLLIYSASKLAAGVPARFSGSGSGTDFTLTISSLEPEDFAVYYCQQTNRYSNPDIYNVFGGGTKLTVLGGGGGSGGGGSGGGGSGGGGSQVQLVQSGAEVKKPGSSVKVSCKASGIDFNSNYYMCWVRQAPGQGLEWMGCIYVGSHVNTYYANWAKGRVTITADESTSTAYMELSSLRSEDTAVYYCATSGSSVLYFKFWGQGTLVTVSS
notes: scFv VL-linker-VH, made in E. coli; also called Vκ3VH1A capped
B6: Vκ3/VH1B consensus λ-capped, human IL23R specific scFv (scFv)
scFv: B5 scFv with S149A, I205M, A207R, E209T, T211I
notes: scFv VL-linker-VH, made in E. coli; also called Vκ3VH1B capped
B7: Vκ2/VH6 consensus λ-capped, human IL23R specific scFv (scFv)
scFv: DIVMTQSPLSLPVTPGEPASISCQASENIYSFLAWYLQKPGQSPQLLIYSASKLAAGVPDRFSGSGSGTDFTLKISRVEAEDVGVYYCQQTNRYSNPDIYNVFGGGTKLTVLGGGGGSGGGGSGGGGSGGGGSQVQLQQSGPGLVKPSQTLSLTCAISGIDFNSNYYMCWIRQSPGRGLEWLGCIYVGSHVNTYYANWAKGRITINPDTSKNQFSLQLNSVTPEDTAVYYCATSGSSVLYFKFWGQGTLVTVSS
notes: scFv VL-linker-VH, made in E. coli; also called Vκ2VH6 capped
B8: VK1/VH3 consensus λ-capped, TNF-specific scFv (scFv)
scFv: DIQMTQSPSSLSASVGDRVTITCQASQSISDWLAWYQQKPGKAPKLLIYGASRLASGVPSRFSGSGSGTDFTLTISSLQPEDFATYYCQQGWSDSYVDNLFGGGTKLTVLGGGGGSGGGGSGGGGSGGGGSEVQLVESGGGLVQPGGSLRLSCAASGFSLSSGAMSWVRQAPGKGLEWVSVIISSGATYYASWAKGRFTISRDNSKNTLYLQMNSLRAEDTAVYYCARGGPDDSNSMGTFDPWGQGTLVTVSS
notes: also called capped Vκ1/VH3 consensus molecule (TNF CDRs)
B9: VK1/VH3 consensus uncapped, TNF-specific scFv (scFv)
scFv: B8 scFv with G103Q, L107V, T108E, V109I, L110K, G111R
notes: also called control molecule (Vκ1/VH3 consensus)
B10: VK3/VH3 consensus λ-capped, TNF-specific scFv (scFv)
scFv: DIVLTQSPATLSLSPGERATLSCQASQSISDWLAWYQQKPGQAPRLLIYGASRLASGVPARFSGSGSGTDFTLTISSLEPEDFAVYYCQQGWSDSYVDNLFGGGTKLTVLGGGGGSGGGGSGGGGSGGGGSEVQLVESGGGLVQPGGSLRLSCAASGFSLSSGAMSWVRQAPGKGLEWVSVIISSGATYYASWAKGRFTISRDNSKNTLYLQMNSLRAEDTAVYYCARGGPDDSNSMGTFDPWGQGTLVTVSS

Each binder was assayed against T1, human interleukin-23 receptor (IL23R) (assay: SPR, scFv).
Method in brief: (§1)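 Humanized rabbit variable domains were made as single-chain variable fragments (scFv) on consensus germline framework pairs, with or without a λ-cap (Vκ framework IV replaced by a Vλ germline sequence). They were expressed in E. coli as inclusion bodies, solubilized and refolded in a generic refolding buffer. Affinity for human IL23R was measured by surface plasmon resonance, giving rate constants and dissociation constant, or the λ-capped over uncapped dissociation-constant ratio.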

| Kd | koff | kon | Binder |
| --- | --- | --- | --- |
| 0.0916 nM | 0.000152 s⁻¹ | 1.66e+06 M⁻¹ s⁻¹ | B1 |
| 0.0397 nM | 7.77e-05 s⁻¹ | 1.95e+06 M⁻¹ s⁻¹ | B2 |
| 0.476 nM | 0.000715 s⁻¹ | 1.5e+06 M⁻¹ s⁻¹ | B3 |
| 0.0481 nM | 0.000112 s⁻¹ | 2.33e+06 M⁻¹ s⁻¹ | B4 |
| 0.585 nM | 0.00117 s⁻¹ | 2e+06 M⁻¹ s⁻¹ | B5 |
| 0.181 nM | 0.000506 s⁻¹ | 2.8e+06 M⁻¹ s⁻¹ | B6 |
| 0.887 nM | 0.000475 s⁻¹ | 535000 M⁻¹ s⁻¹ | B7 |

The binders below were run against T2, human TNF (human, UniProt P01375 77-233) (assay: SPR, scFv).
T2 sequence (P01375 77-233 limits assumed): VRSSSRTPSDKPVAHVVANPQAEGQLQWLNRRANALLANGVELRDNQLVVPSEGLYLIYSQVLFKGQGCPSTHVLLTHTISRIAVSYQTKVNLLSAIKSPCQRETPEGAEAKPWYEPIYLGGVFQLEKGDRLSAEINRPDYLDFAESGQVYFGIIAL

| Kd | koff | kon | Binder |
| --- | --- | --- | --- |
| 0.225 nM | 9.41e-05 s⁻¹ | 419000 M⁻¹ s⁻¹ | B8 |
| 0.265 nM | 0.000105 s⁻¹ | 395000 M⁻¹ s⁻¹ | B9 |

What follows are binders tested against T1, human interleukin-23 receptor (IL23R) (assay: SPR, scFv (summary table)).
Method in brief: as §1

| Kd | Binder |
| --- | --- |
| 0.0916 nM | B1 |
| 0.0397 nM | B2 |
| 0.476 nM | B3 |
| 0.0481 nM | B4 |
| 0.585 nM | B5 |
| 0.181 nM | B6 |
| 0.887 nM | B7 |

These binders were tested against T2, human TNF (assay: SPR, scFv; footnote: interference with SPR measurement).

| Kd | koff | kon | Binder |
| --- | --- | --- | --- |
| 1.82 nM | 0.000529 s⁻¹ | 290000 M⁻¹ s⁻¹ | B10 |

The binders below were run against T1, human interleukin-23 receptor (IL23R) (assay: SPR; KD of the capped scFv over KD of its uncapped counterpart).
Method in brief: as §1

| Ratio (capped/uncapped) of KD | Binder |
| --- | --- |
| 0.2 | B1 |
| 1.7 | B2 |
| 1.6 | B3 |
| 0.4 | B4 |
| 2 | B5 |
| 0.4 | B6 |
| 0.3 | B7 |
